A short description of the data set: yeast display, Sf9 membrane polyspecificity reagent, FACS + sequencing; frameworks hold sequencing errors. Put shortly:
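Sorting gates, low and high (top ~1%), were placed on anti-HA fluorescence to track expression and on streptavidin fluorescence to track reagent binding. A clone's polyreactivity label is taken from the gate it came out of. The reagent was 10% biotinylated, detergent-solubilized Sf9 membrane, applied for 1 hour at 4 °C to galactose-induced yeast display cells.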
In the case of “QVQLVESGGGLVQAGGSLRLSCAASGRTFPYYTMGWYRQAPGKERELVAAISSSGGSTYYADSVKGRFTISRDNAKNTVYLQMNSLKPEDTAVYYCNAGYRWTHFGSWGQGTQVTVSS”, the “polyreactivity (PSR sort gate)” value was “low polyreactivity”. Next, “QVQLVESGGGLVQAGGSLRLSCAASGRTFQDNAMGWYRQAPGKEREFVAAISWSGDSTYYADSVKGRFTISRDNAKNTVYLQMNSLKPEDTAVYYCAASRVIPSYPYYKYDYWGQGTQVTVSS”: “low polyreactivity”.

Regarding “QVQLVESGGGLVQAGGSLRLSCAASGRTFQDNAMGWYRQAPGKERELVAAIRDNGGSTYYADSVKGRFTISRDNAKNTVYLQMNSLKPEDTAVYYCAADQGTGSYDYWGQGTQVTVSS”, the “polyreactivity (PSR sort gate)” value is “low polyreactivity”. Next, “QVQLVESGGGLVQAGGSLRLSCAASGRTFQDNAMGWYRQAPGKERELVAAISWRGGSTNYADSVKGRFTISRDNAKNTVYLQMNSLKPEDTAVYYCAKGIRRWYGGSDYWGQGTQVTVSS”: “low polyreactivity”; “QVQLVESGGGLVQAGGSLRLSCAASGRTFQEYAMGWYRQAPGKERELVADISDGGSTNYADSVKGRFTISRDNAKNTVYLLMKSLKPEDTAGYYCAAARPGWRVGYDYWGQGTQVTVSS”: “low polyreactivity”; “QVQLVESGGGLVQAGGSLRLSCAASGRTFQFYTMGWYRQAPGKERELVAVITVSSASTFYADSVKGRFTISRDNAKNTVYLQMNSLKPEDTAVYYCAAGLVLNVGMDSWGQGTQVTVSS”: “low polyreactivity”. Next, “QVQLVESGGGLVQAGGSLRLSCAASGRTFQGNVMGWYRQAPGKERELVAAISRSGSRTYYADSVKGRFTISRDNAKNTVYLQMNSLKPEDTAVYYCNALKSKRRQVIWYDYWGQGTQVTVSS”: “high polyreactivity”. The value for “QVQLVESGGGLVQAGGSLRLSCAASGRTFQKNTMGWYRQARGKEMQLVAAIDFSATTTYYADSVKGRFTISRDNAKNTVYLQMNSLKPEATAVYYCAARWSYPRWELDYWGQGTQVTVSS” was “high polyreactivity”; that for “QVQLVESGGGLVQAGGSLRLSCAASGRTFQLNAMGWYRQAPGKEREVVAAISTRGGSTYYADSVKGRFTISRDNAKNTVYLQMHRLKPEDTAVYYCAKDPSFTRGYKEGGGYDYWGQGTQVTVSS” was “high polyreactivity”.

“QVQLVESGGGLVQAGGSLRLSCAASGRTFQRYAMGWYRQAPGKERELVAAITSRGGSTYYADSVKGRFTISRDNAKNTVYLQMNSLKPEDTAVYYCNARSRRTHSEPQSEMDYWGQGTQVTVSS”: the “polyreactivity (PSR sort gate)” value was “high polyreactivity”. The value for “QVQLVESGGGLVQAGGSLRLSCAASGRTFQRYTMGWYRQAPGKERELVASISRSGGSTYYADSVKGRFTISRDNAKNTVYLQMNSLKPEDTAVYYCATRSLFWNRNHYRVSSPVLFDYWGQGTQVTVSS” was “high polyreactivity”; that for “QVQLVESGGGLVQAGGSLRLSCAASGRTFQTNDMGLYRKAPGKERELVAAISRRGGSTYYADSVKGRFTISRDNAKNTVYLQMNSLKPEDTAVYYCAATRLSRYDYWGQGTQVTVSS” was “low polyreactivity”. For the sequence “QVQLVESGGGLVQAGGSLRLSCAASGRTFQVNAMGWYRQAPGKERELVAAISASDGSTYADSVKGRFTISRDNAKNTVYLQMNSLKPEDTAVYYCNKAAYGGHRTSEQVGWVYLYDYWGQGTQVTVSS”, the “polyreactivity (PSR sort gate)” value was “low polyreactivity”. Turning to “QVQLVESGGGLVQAGGSLRLSCAASGRTFQVNSMGWYRQAPGKERELVAALTKRGGSTSYADSVKGRFTFSRDNANNTFYLQMNSLIPEDTAVYYCNVDYWGQGTQVTLSS”, the “polyreactivity (PSR sort gate)” value is recorded as “low polyreactivity”. Turning to “QVQLVESGGGLVQAGGSLRLSCAASGRTFQVNTMGWYRQAPGKERELVAAISSAGRTYYADSVKGRFTISRDNAQNTVYLQMNSLKPEDTAVYYCAAAWSYSYWKARYGYWGQGTQVTVSS”, the “polyreactivity (PSR sort gate)” value is reported as “high polyreactivity”. The value for “QVQLVESGGGLVQAGGSLRLSCAASGRTFQVYTMGWYRQAPGKERELVAAISRSGGSTYYADSVKGRFTISRDNAKNTVYLQMNSLKPEDTAVYYCAAVPGWLTSRYYYWGQGTQVTVSS” was “high polyreactivity”. The value for “QVQLVESGGGLVQAGGSLRLSCAASGRTFQWYAMGWYRQAPGKERELVAAISWGGGRTYYADSVKGRFTISRDNAKNTVYLQMNSLKPEDTAVYYCAASYRKLPDKKRYGYWGQGTQVTVSS” was “high polyreactivity”.

Turning to “QVQLVESGGGLVQAGGSLRLSCAASGRTFQWYAMGWYRQAPGKERELVAAISYNGDSTYYADSVKGRFTISRDNAKNTVYLQMNSLKPEDTAVYYCAATPYPYYGYDYWGQGTQVTVSS”, the “polyreactivity (PSR sort gate)” value was “high polyreactivity”.

With “QVQLVESGGGLVQAGGSLRLSCAASGRTFQYNAMGWYRQAPGKERELVAVISRGGRTNYADSVKGRFTISRDNAKNTVYLQMNSLKPEDTAVYYCAADWYTPQGVGLDYWGQGTQVTVSS”, the “polyreactivity (PSR sort gate)” value is listed as “low polyreactivity”.

As to “QVQLVESGGGLVQAGGSLRLSCAASGRTFRAYALGWYRQAPGKERELVAAITSGGSTKYADSVKGRFTISRDNAKNTVYLQMNSLKPEDTAVYYCNARVRVRLGRNWSSYYYWGQGTQVTVSS”, the “polyreactivity (PSR sort gate)” value was “high polyreactivity”. The value for “QVQLVESGGGLVQAGGSLRLSCAASGRTFRAYVMGWYRQAPGKERELVAAISGRGGSTYYADSVKGRFTSSRDNAKNTVYLQMNSLKPEDTAVYYCNAVQLSQRPHDYWGQGTQVTVSS” was “high polyreactivity”.

With “QVQLVESGGGLVQAGGSLRLSCAASGRTFRENAMGSSRPAPGKERELVAAIRRSGGRTYYADSVKGRFTISRDNAKNTVYLQMHSLKPEDTAVSDCIAVADGYAFRRPYVTYYYWGQGTQVTVSS”, the “polyreactivity (PSR sort gate)” value is reported as “low polyreactivity”. The value for “QVQLVESGGGLVQAGGSLRLSCAASGRTFRENAMGWYRPAPGKERELVAAISWRAGSTYYADSVKGRFTISRDNAKNTVYLQMNSLKPEDTAVYYCAAKYTVSFYLWGTFNYWGQGTQVTVSS” was “high polyreactivity”; that for “QVQLVESGGGLVQAGGSLRLSCAASGRTFRFNAMGWYRQAPGKERELVAAISFRGGSTYYADSVKGRFTISRDNAKNTVYLQMNSLKPEHTAVYYCAARARTGTYRDMYYWGQGTQVTVSS” was “high polyreactivity”; that for “QVQLVESGGGLVQAGGSLRLSCAASGRTFRFYAMGWSRQAPGKERELGAAITGSGGSTYYADSVKGRFTISRDNAKNTVYLQMNCLKPEDTAVYYCAASRWREYHASKMDYWGQGTQVTVSS” was “low polyreactivity”. The value for “QVQLVESGGGLVQAGGSLRLSCAASGRTFRGNVMGWYRQAPGKEREFVAAITKSDGSTYYADSVKGRFTISRDIAKNTVYLQMNSLNPEDTAVDYCAARTARTGWPWFRFDYWGQGTQVTVSS” was “low polyreactivity”. Next, “QVQLVESGGGLVQAGGSLRLSCAASGRTFRGNVMGWYRQATGKEREFVAAITRSGSNTYYADSVKGRFTISRDYAKTTVYLQMNSLKPEDTAVYDCAKSVLLGYKRHDSWGQGTQVTVSS”: “high polyreactivity”; “QVQLVESGGGLVQAGGSLRLSCAASGRTFRGYVMGWYRQAPGKERELVAAISKSGGSTYYADSVKGRFTISRDIAKNTVYLQMNSLKPEDTAVYYCNALPRTQYDYWGQGTQVTVSS”: “low polyreactivity”; “QVQLVESGGGLVQAGGSLRLSCAASGRTFRHYAMAWYRQAPGKERELVASIRWNGASTNYADSVKGRFTISRDNAKNTVYLQMNSLKPEDTAVYYCNARYLFYSGYVYWGQGTQVTVSS”: “high polyreactivity”. As for “QVQLVESGGGLVQAGGSLRLSCAASGRTFRINAMGCYRQAPGKERELVAAITSGGRTNYADSVKGRFTISRDNAKNTVYLQMNSLKPEDTAVYYCAAERTPSYRAYDYWGQGTQVTVSS”, the “polyreactivity (PSR sort gate)” value is listed as “low polyreactivity”. The value for “QVQLVESGGGLVQAGGSLRLSCAASGRTFRIYAMGWYRHAPRKERELVAAIRWSGGTTYYADSVKGRFSISRDNAKNTVYLQMTSLKPEDTAVYYCAADSTNRYDYCGQGTQVTVSS” was “high polyreactivity”; that for “QVQLVESGGGLVQAGGSLRLSCAASGRTFRIYAMGWYRQAPGKEREFVAAITWSGGRTYYADSVKGRFTISRDNAKNTVYLQMNSLKPEDTAVYYCAADPTYLRTLRFGSYDYWGQGNQVTVSS” was “high polyreactivity”; that for “QVQLVESGGGLVQAGGSLRLSCAASGRTFRIYAMGWYRQAPGKERELVAAINSGGTTNYADSVKGRFTISRDNAKNTVYLQMISLKPEDTAVYYCAVRYWKTLSHFSYDYWGQGTQVTVSS” was “low polyreactivity”. With “QVQLVESGGGLVQAGGSLRLSCAASGRTFRIYAMGWYRQAPGKERELVAAISARGGSTYYADSVKGRFTISRDNAKNTVYLQMNSLKPEDTAVYYCAAEKTRRVDYWGQGTQVTVSS”, the “polyreactivity (PSR sort gate)” value is “high polyreactivity”.

“QVQLVESGGGLVQAGGSLRLSCAASGRTFRIYAVGWYIQAPGKERELVARITWSGGRTYYADSVKGRFTISRDNAKNTVYLQMNSLKPEDTAVYYCNAGGSWEFDYWGQGTQVTVSS”: the “polyreactivity (PSR sort gate)” value is reported as “low polyreactivity”. The value for “QVQLVESGGGLVQAGGSLRLSCAASGRTFRKYAMGWYRQAPGKERELVAAISQRGGTTYYADSVKGRFTISRDNAKNTVYLQINSLKPEDTAVYYCNVAWVGVSLVYGPFEYDYWGQGTQVTVSS” was “high polyreactivity”; that for “QVQLVESGGGLVQAGGSLRLSCAASGRTFRKYAMGWYRQAPGKERELVAAISWSGGSTYYANSVKGRFTISRDYAKNTVYLQMNILKPEDTAVYYCAAVPVHTGSLYWGFTTGYDYWGQGTQVTVSS” was “low polyreactivity”.

Consider “QVQLVESGGGLVQAGGSLRLSCAASGRTFRKYAMGWYRQAPGKERELVAAISWSGGSTYYANSVKGRFTISRVNAKNTVYLQMNSLKPEDTAVYYCAAVPVDTGSLYWGFTTGYDYWGQGTQVTVSS”, for which the “polyreactivity (PSR sort gate)” value was “low polyreactivity”.

For “QVQLVESGGGLVQAGGSLRLSCAASGRTFRKYTMGWYRQAPGKEREFVAAITYSGGSTYYADSVKGRFTISRDNAKNTGYLQMNSLKPEDTAVSYCFTRGGYYLYYSYYYWGQGTQVTVSS”, the “polyreactivity (PSR sort gate)” value is reported as “high polyreactivity”.

“QVQLVESGGGLVQAGGSLRLSCAASGRTFRLYALGWYRQAPGKERELVAAIRSSGGRTYYADSVKGRFTISRDNAKKTVYLQINSLKPEDTAVYYCATTSGLIGYYWKYNYWGQGTQVTVSS”: the “polyreactivity (PSR sort gate)” value is given as “high polyreactivity”. Next, “QVQLVESGGGLVQAGGSLRLSCAASGRTFRLYAMGWSRPAPGKERELVAAISSGGSTYYADSVKGRFTISRDNAKNTVYLQMNSLKPEDTAVYYCFAWVYQFGYWGQGTQVTVSS”: “low polyreactivity”.

The values are drawn from the nanobody polyreactivity screen of Harvey et al. (2022).
